Experiment [1] deals with human CD3 (CD3 epsilon of the T-cell receptor complex) on Jurkat cells (human) (UniProt P07766). Description: competition with 125I-UCHT1 tracer on Jurkat cells; competitor at 100 nM.
The target is the same in experiment [2]. Description: competition with 125I-UCHT1 tracer on Jurkat cells; competitor at 1 nM.
Experiment [3] shares this target. Briefly: cell-based or functional assay.

Take “UCHT1 monoclonal antibody (murine anti-human CD3, IgG1)”: the % of 125I-UCHT1 tracer bound (% of tracer bound without competitor) amounted to 0 in experiment [1] and 80 in experiment [2]. For the substance “sFv-DT390 (DT390-sFv(UCHT1'), anti-CD3 single-chain immunotoxin with truncated diphtheria toxin)”, in experiment [3], the ratio of IC50 of sFv-DT390 to IC50 of UCHT1-CRM9 was 16 fold. As to “scUCHT1 (divalent chimeric anti-human CD3 single chain antibody, UCHT1 VL-linker-VH fused to human IgM Fc CH2-CH4) (Fc fusion)”, the values for the % of 125I-UCHT1 tracer bound (% of tracer bound without competitor) in experiment [1] and in experiment [2] were 0 and 80, respectively.

(Values after EP1287147B1.)
